What was measured:
Conditions in all cases: protein: recombinant; tags: His-TF (trigger factor), pCold-TF; chain copies: 2; blunt
AaTCP15 [1] = target: T1, AaTCP15 (Artemisia annua, UniProt A0A8E3YC86 1-384); assay: EMSA; cold Dq competitor reduces shift; not given; EMSA as described in Ma et al. 2018; cold competitor 10x, 20x, 40x
AaTCP15 [2] = target: T1, AaTCP15; assay: EMSA; not given; EMSA as described in Ma et al. 2018; cold competitor 10x, 20x, 40x
AaTCP15 [3] = target: T1, AaTCP15; assay: EMSA; cold Aq competitor reduces shift; not given; EMSA as described in Ma et al. 2018; cold competitor 10x, 20x, 40x

T1 sequence (A0A8E3YC86 entry or part of it): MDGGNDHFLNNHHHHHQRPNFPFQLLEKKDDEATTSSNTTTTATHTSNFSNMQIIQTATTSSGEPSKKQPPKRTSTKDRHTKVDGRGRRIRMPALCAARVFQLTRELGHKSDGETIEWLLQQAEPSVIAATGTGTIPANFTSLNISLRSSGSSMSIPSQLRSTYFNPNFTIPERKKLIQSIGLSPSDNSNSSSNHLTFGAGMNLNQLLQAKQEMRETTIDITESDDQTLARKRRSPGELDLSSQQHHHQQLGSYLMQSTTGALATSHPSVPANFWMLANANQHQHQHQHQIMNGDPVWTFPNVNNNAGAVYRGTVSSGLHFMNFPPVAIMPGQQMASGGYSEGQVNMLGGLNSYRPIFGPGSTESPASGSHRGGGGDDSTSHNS

B1: Dq probe (DBR2 promoter) (dsDNA)
DNA 1: GTCGCTAAACTTGCCACGGTCCCACTTTTTCAACTCTTATTA
DNA 2: TAATAAGAGTTGAAAAAGTGGGACCGTGGCAAGTTTAGCGAC
binding result (AaTCP15 [1]): binds

B2: Dq mutated probe (dsDNA)
DNA 1: GTCGCTAAACTTGCCACGGTAAACATTTTTCAACTCTTATTA
DNA 2: TAATAAGAGTTGAAAAATGTTTACCGTGGCAAGTTTAGCGAC
binding result (AaTCP15 [2]): no binding

B3: Aq probe (ALDH1 promoter) (dsDNA)
DNA 1: GGTTGGTTGCATTATCTGGCCCCACCGTAAACAATCAAATGC
DNA 2: GCATTTGATTGTTTACGGTGGGGCCAGATAATGCAACCAACC
binding result (AaTCP15 [3]): binds

From PMC8313134, “Jasmonate‐ and abscisic acid‐activated AaGSW1‐AaTCP15/AaORA transcriptional cascade promotes artemisinin biosynthesis in Artemisia annua”
